Experimental data reported in paper PMC7466717, “PPARγ Transcription Deficiency Exacerbates High-Fat Diet-Induced Adipocyte Hypertrophy and Insulin Resistance in Mice” (Frontiers in Pharmacology, 2020).
Ends that are not written are not given here.

These binders were tested against T1, H6-PPARγ CDE wild-type (human PPARγ, domains from DBD to the C-terminus, residues 103–477) (human, UniProt P37231-2 103-477) (assay: AlphaScreen or HTRF; 100 nM H6-PPARγ CDE, 100 nM biotin-labeled peptide, gradient doses of rosiglitazone; hexahistidine detection kit (Perkin-Elmer); 50 mmol/L MOPS, 50 mmol/L NaF, 0.05 mmol/L CHAPS, 0.1 mg/ml bovine serum albumin, pH 7.4). Conditions: both partners purified.
T1 construct: Human PPARγ, CDE domains (DBD, hinge, LBD to the C-terminus), residues 103-477; a C-terminus at 477 fits the 477-residue PPARγ1 isoform; Expressed from pET24a as an N-terminal 6xHis fusion; also called H6-PPARγ CDE WT; PPARγ CDE WT; source: E. coli BL21(DE3), purified (Ni HiTrap HP, SP-Sepharose); not shown: His6, N-terminal, kept
T1 sequence (looked up): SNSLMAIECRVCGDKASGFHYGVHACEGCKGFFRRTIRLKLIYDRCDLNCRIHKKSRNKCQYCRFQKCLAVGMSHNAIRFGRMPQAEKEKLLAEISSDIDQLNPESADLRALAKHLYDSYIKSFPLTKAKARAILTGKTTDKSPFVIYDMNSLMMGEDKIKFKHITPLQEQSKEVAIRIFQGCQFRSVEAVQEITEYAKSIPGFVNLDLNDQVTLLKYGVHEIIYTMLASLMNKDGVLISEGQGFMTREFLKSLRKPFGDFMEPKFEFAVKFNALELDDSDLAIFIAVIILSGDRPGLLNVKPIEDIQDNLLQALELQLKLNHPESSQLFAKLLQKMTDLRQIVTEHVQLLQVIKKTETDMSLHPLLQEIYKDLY

Binding result, binds:
SPSSHSSLTERHKILHRLLQEGSP (also: biotin label, position not given here) [biotin-labeled SRC1-2 coactivator peptide]
GHSFADPASNLGLEDIIRKALMGSF (also: biotin label, position not given here, not the gene NCOR2/SMRT) [biotin-labeled NCoR-2 corepressor peptide]
QEPVSPKKKENALLRYLLDKDDTKD (also: biotin label, position not given here) [biotin-labeled SRC2-3 coactivator peptide]
